# Test results published in paper PMC6180126, “A guanine-flipping and sequestration mechanism for G-quadruplex unwinding by RecQ helicases”.
# B1: Duplex 1/Duplex 2 (dsDNA)
# DNA 1: GCGTGGGTAATTGTGCTTCAATGGACTGAC
# DNA 2: AAGCACAATTACCCACGC
# Assays:
# [1] = biological target: T1, CsRecQ catalytic core S245A (Cronobacter sakazakii, UniProt A7MQK9 1-521, S245A); assay: X-ray crystallography; discontinuous density in helicase/winged-helix cleft; 20 mM Tris-HCl pH 8.0, 100 mM NaCl, 1 mM MgCl2, 1 mM 2-mercaptoethanol, 0.1 mg/mL BSA, 4% glycerol; 5 nM DNA, 30 min at room temperature, read at 25 C (G4 folded in 10 mM Tris-HCl pH 8.0, 100 mM KCl); details: protein: recombinant; tags: N-terminal His tag removed (thrombin); antiparallel G4 with 12 nt 3' ssDNA tail; resolved (unwound) in 6CRM
# [2] = biological target: EcRecQ catalytic core D312A (Escherichia coli, UniProt P15043 1-523, D312A); assay: fluorescence anisotropy; apparent Kd; 1 mM Mg2+; 20 mM Tris-HCl pH 8.0, 100 mM NaCl, 1 mM MgCl2, 1 mM 2-mercaptoethanol, 0.1 mg/mL BSA, 4% glycerol; 5 nM DNA, 30 min at room temperature, read at 25 C (G4 folded in 10 mM Tris-HCl pH 8.0, 100 mM KCl); details: protein: recombinant, tags: N-terminal His tag removed (thrombin)
# EcRecQ catalytic core = EcRecQ catalytic core (Escherichia coli, UniProt P15043 1-523); assay: as above; details: protein: recombinant, tags: N-terminal His tag removed (thrombin)
# CsRecQ catalytic core = CsRecQ catalytic core (Cronobacter sakazakii, UniProt A7MQK9 1-521); assay: as above; details: protein: recombinant, tags: N-terminal His tag removed (thrombin)
# [3] = biological target: T1, CsRecQ catalytic core S245A; assay: fluorescence anisotropy; 1 mM Mg2+; Kd not determined (anisotropy decreased with time); 20 mM Tris-HCl pH 8.0, 100 mM NaCl, 1 mM MgCl2, 1 mM 2-mercaptoethanol, 0.1 mg/mL BSA, 4% glycerol; 5 nM DNA, 30 min at room temperature, read at 25 C (G4 folded in 10 mM Tris-HCl pH 8.0, 100 mM KCl); details: protein: recombinant; tags: N-terminal His tag removed (thrombin); label: 3' FAM; intramolecular G4 (folded in 100 mM KCl) with 12 nt 3' ssDNA tail
# [4] = biological target: T2, EcRecQ catalytic core S245A (Escherichia coli, UniProt P15043 1-523, S245A); assay: as above; details: protein: recombinant; tags: N-terminal His tag removed (thrombin); label: 3' FAM; intramolecular G4 (folded in 100 mM KCl) with 12 nt 3' ssDNA tail
# [5] = biological target: T1, CsRecQ catalytic core S245A; assay: fluorescence anisotropy; apparent Kd; 1 mM Mg2+; 20 mM Tris-HCl pH 8.0, 100 mM NaCl, 1 mM MgCl2, 1 mM 2-mercaptoethanol, 0.1 mg/mL BSA, 4% glycerol; 5 nM DNA, 30 min at room temperature, read at 25 C (G4 folded in 10 mM Tris-HCl pH 8.0, 100 mM KCl); details: protein: recombinant; tags: N-terminal His tag removed (thrombin); label: 3' FAM on Duplex 1; 18 bp, 3' overhang 12 nt on strand 1
# [6] = biological target: T2, EcRecQ catalytic core S245A; assay: as above; details: protein: recombinant; tags: N-terminal His tag removed (thrombin); label: 3' FAM on Duplex 1; 18 bp, 3' overhang 12 nt on strand 1
# [7] = label: 3' FAM, intramolecular G4 (folded in 100 mM KCl) with 12 nt 3' ssDNA tail
# [8] = label: 3' FAM on Duplex 1, 18 bp, 3' overhang 12 nt on strand 1
binder,measurement,setting,value
TTAGGGTTAGGGTTAGGGTTAGGGTCGGTGCCTTACT (structured_DNA) [G4 DNA],binding result,[1],binds
TTAGGGTTAGGGTTAGGGTTAGGGTCGGTGCCTTACT (structured_DNA) [F-G4],Kd,[2]; [7],330 ± 40 nM
same,Kd,EcRecQ catalytic core; [7],1000 ± 100 nM
same,Kd,CsRecQ catalytic core; [7],4700 ± 900 nM
same,binding result,[3],binds
same,binding result,[4],binds
B1,Kd,[2]; [8],280 ± 20 nM
same,Kd,[5],4000 ± 1600 nM
same,Kd,EcRecQ catalytic core; [8],950 ± 60 nM
same,Kd,[6],2200 ± 200 nM
same,Kd,CsRecQ catalytic core; [8],2900 ± 300 nM
